According to the supplement of paper PMC10567573:

B1: PLAGL1 (parent)
chain: CKDFLCQFCAQRFGRKDHLTRHTK
B2: FCHO1 (parent)
chain: DKLALCHLELTRKLQDLIKDVLRY

Variants of: B1
Assay: protein stability index of a GFP-peptide fusion (GPS, HEK-293T) (PSI 1-6); higher = more stable
Conditions: c terminus: a fixed tail appended
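Note: lentivirally expressed fusions sorted by FACS into six bins by GFP to DsRed ratio, PSI derived from sequencing read proportions per bin multiplied by bin number.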

In order of rising protein stability index:
1. CKDVLCQFCAQRFGRKDHLTRHTK [F4V]  1.27
2. CKDFLCLFCAQRFGRKDHLTRHTK [Q7L]  1.29
3. CKCFLCQFCAQRFGRKDHLTRHTK [D3C]  1.31
4. CKDYLCQFCAQRFGRKDHLTRHTK [F4Y]  1.36
5. CKMFLCQFCAQRFGRKDHLTRHTK [D3M]  1.38
6. CKDLLCQFCAQRFGRKDHLTRHTK [F4L]  1.41
7. CKDFLCQFCQQRFGRKDHLTRHTK [A10Q]  1.44
8. CKKFLCQFCAQRFGRKDHLTRHTK [D3K]  1.48
9. CKSFLCQFCAQRFGRKDHLTRHTK [D3S]  1.51
10. CKDFLCCFCAQRFGRKDHLTRHTK [Q7C]  1.52
11. CKDILCQFCAQRFGRKDHLTRHTK [F4I]  1.54
12. CKNFLCQFCAQRFGRKDHLTRHTK [D3N]  1.56
13. CKAFLCQFCAQRFGRKDHLTRHTK [D3A]  1.57
14. CKDHLCQFCAQRFGRKDHLTRHTK [F4H]  1.58
15. CKDFLCQWCAQRFGRKDHLTRHTK [F8W]  1.6
16. CKDFLCQFCMQRFGRKDHLTRHTK [A10M]  1.65
17. CKDFLCQFCEQRFGRKDHLTRHTK [A10E]  1.69
18. CKPFLCQFCAQRFGRKDHLTRHTK [D3P]  1.73
19. CKWFLCQFCAQRFGRKDHLTRHTK [D3W]  1.73
20. CKDFLCFFCAQRFGRKDHLTRHTK [Q7F]  1.74
21. CKDFLCNFCAQRFGRKDHLTRHTK [Q7N]  1.74
22. CKDFLCSFCAQRFGRKDHLTRHTK [Q7S]  1.76
23. CKDDLCQFCAQRFGRKDHLTRHTK [F4D]  1.76
24. CKTFLCQFCAQRFGRKDHLTRHTK [D3T]  1.77
25. CKDFLCQYCAQRFGRKDHLTRHTK [F8Y]  1.77
26. CKEFLCQFCAQRFGRKDHLTRHTK [D3E]  1.78
27. CKDFLCQFCLQRFGRKDHLTRHTK [A10L]  1.79
28. CKDFLCQFCGQRFGRKDHLTRHTK [A10G]  1.79
29. CKRFLCQFCAQRFGRKDHLTRHTK [D3R]  1.81
30. CKDFLCQFCIQRFGRKDHLTRHTK [A10I]  1.83
31. CKLFLCQFCAQRFGRKDHLTRHTK [D3L]  1.86
32. CKDFLCQFCDQRFGRKDHLTRHTK [A10D]  1.87
33. CKDFLCQFCHQRFGRKDHLTRHTK [A10H]  1.9
34. CKDFLCQICAQRFGRKDHLTRHTK [F8I]  1.93
35. CKDFLCHFCAQRFGRKDHLTRHTK [Q7H]  1.96
36. CKDFLCQFCTQRFGRKDHLTRHTK [A10T]  1.96
37. CKDFLCQFCNQRFGRKDHLTRHTK [A10N]  1.96
38. CKDFLCQFCFQRFGRKDHLTRHTK [A10F]  1.96
39. CKDCLCQFCAQRFGRKDHLTRHTK [F4C]  1.97
40. CKIFLCQFCAQRFGRKDHLTRHTK [D3I]  2.01
41. CKDFLCVFCAQRFGRKDHLTRHTK [Q7V]  2.02
42. CKDGLCQFCAQRFGRKDHLTRHTK [F4G]  2.02
43. CKDFLCQFCPQRFGRKDHLTRHTK [A10P]  2.03
44. CKDALCQFCAQRFGRKDHLTRHTK [F4A]  2.05
45. CKDFLCYFCAQRFGRKDHLTRHTK [Q7Y]  2.06
46. CKHFLCQFCAQRFGRKDHLTRHTK [D3H]  2.07
47. CKDFLCRFCAQRFGRKDHLTRHTK [Q7R]  2.08
48. CKDFLCGFCAQRFGRKDHLTRHTK [Q7G]  2.09
49. CKYFLCQFCAQRFGRKDHLTRHTK [D3Y]  2.11
50. CKDFLCQFCRQRFGRKDHLTRHTK [A10R]  2.14
51. CKDFLCQFCVQRFGRKDHLTRHTK [A10V]  2.16
52. CKDFLCQVCAQRFGRKDHLTRHTK [F8V]  2.18
53. CKDFLCQFCCQRFGRKDHLTRHTK [A10C]  2.19
54. CKDFLCQMCAQRFGRKDHLTRHTK [F8M]  2.19
55. CKDFLCQSCAQRFGRKDHLTRHTK [F8S]  2.19
56. CKDFLCDFCAQRFGRKDHLTRHTK [Q7D]  2.2
57. CKDFLCKFCAQRFGRKDHLTRHTK [Q7K]  2.21
58. CKDMLCQFCAQRFGRKDHLTRHTK [F4M]  2.21
59. CKDFLCPFCAQRFGRKDHLTRHTK [Q7P]  2.23
60. CKDSLCQFCAQRFGRKDHLTRHTK [F4S]  2.23
61. CKDFLCQFCSQRFGRKDHLTRHTK [A10S]  2.24
62. CKDFLCEFCAQRFGRKDHLTRHTK [Q7E]  2.25
63. CKDFLCMFCAQRFGRKDHLTRHTK [Q7M]  2.29
64. CKDFLCQGCAQRFGRKDHLTRHTK [F8G]  2.32
65. CKDQLCQFCAQRFGRKDHLTRHTK [F4Q]  2.34
66. CKDFLCTFCAQRFGRKDHLTRHTK [Q7T]  2.35
67. CKDTLCQFCAQRFGRKDHLTRHTK [F4T]  2.35
68. CKDPLCQFCAQRFGRKDHLTRHTK [F4P]  2.37
69. CKDFLCAFCAQRFGRKDHLTRHTK [Q7A]  2.38
70. CKGFLCQFCAQRFGRKDHLTRHTK [D3G]  2.38
71. CKVFLCQFCAQRFGRKDHLTRHTK [D3V]  2.38
72. CKDRLCQFCAQRFGRKDHLTRHTK [F4R]  2.4
73. CKDKLCQFCAQRFGRKDHLTRHTK [F4K]  2.41
74. CKDFLCQPCAQRFGRKDHLTRHTK [F8P]  2.47
75. CKDFLCQFCKQRFGRKDHLTRHTK [A10K]  2.48
76. CKDFLCQQCAQRFGRKDHLTRHTK [F8Q]  2.51
77. CKDELCQFCAQRFGRKDHLTRHTK [F4E]  2.56
78. CKDFLCWFCAQRFGRKDHLTRHTK [Q7W]  2.57
79. CKDFLCQECAQRFGRKDHLTRHTK [F8E]  2.62
80. CKDNLCQFCAQRFGRKDHLTRHTK [F4N]  2.64
81. CKDFLCQKCAQRFGRKDHLTRHTK [F8K]  2.69
82. CKQFLCQFCAQRFGRKDHLTRHTK [D3Q]  2.76
83. CKDFLCQTCAQRFGRKDHLTRHTK [F8T]  2.81
84. CKDFLCQNCAQRFGRKDHLTRHTK [F8N]  2.82
85. CKDFLCQHCAQRFGRKDHLTRHTK [F8H]  2.87
86. CKDFLCQLCAQRFGRKDHLTRHTK [F8L]  2.89
87. CKDFLCQACAQRFGRKDHLTRHTK [F8A]  2.94
88. CKDFLCQDCAQRFGRKDHLTRHTK [F8D]  3.12
89. CKFFLCQFCAQRFGRKDHLTRHTK [D3F]  3.19
90. CKDFLCQRCAQRFGRKDHLTRHTK [F8R]  3.32
91. CKDFLCQCCAQRFGRKDHLTRHTK [F8C]  3.64

Variants of: B2
Assay: as above
Conditions: c terminus: a fixed tail appended

In order of rising protein stability index:
1. DKLALCHLERTRKLQDLIKDVLRY [L10R]  1.51
2. DKLALWHLELTRKLQDLIKDVLRY [C6W]  2.01
3. DKLALCHLECTRKLQDLIKDVLRY [L10C]  2.22
